This is an account of results in US20030125231.

For the series, the system named is Histone III (type ss from calf thymus).

As to “His-tagged Pim-2 (purified recombinant human Pim-2, expressed in E. coli)”, the “Incorporation of 33P into Histone (in vitro kinase assay, 15, 30 and 60 min)” value is “purified recombinant Pim-2 is active in phosphorylating Histone”.
